Two substances from patent US20230374475A1 can be followed below.

The target in data set [1] is engineered T. gorgonarius reverse-transcriptase lacking proof reading activity (3'-5' exonuclease) (TgoRTxo) (Thermococcus gorgonarius (engineered)) (UniProt P56689). Briefly: cell-based or functional assay.
In data set [2] the target is T1, TgoRTxo (exonuclease-deficient engineered Tgo reverse transcriptase) (Thermococcus gorgonarius) (UniProt P56689).
T1 sequence: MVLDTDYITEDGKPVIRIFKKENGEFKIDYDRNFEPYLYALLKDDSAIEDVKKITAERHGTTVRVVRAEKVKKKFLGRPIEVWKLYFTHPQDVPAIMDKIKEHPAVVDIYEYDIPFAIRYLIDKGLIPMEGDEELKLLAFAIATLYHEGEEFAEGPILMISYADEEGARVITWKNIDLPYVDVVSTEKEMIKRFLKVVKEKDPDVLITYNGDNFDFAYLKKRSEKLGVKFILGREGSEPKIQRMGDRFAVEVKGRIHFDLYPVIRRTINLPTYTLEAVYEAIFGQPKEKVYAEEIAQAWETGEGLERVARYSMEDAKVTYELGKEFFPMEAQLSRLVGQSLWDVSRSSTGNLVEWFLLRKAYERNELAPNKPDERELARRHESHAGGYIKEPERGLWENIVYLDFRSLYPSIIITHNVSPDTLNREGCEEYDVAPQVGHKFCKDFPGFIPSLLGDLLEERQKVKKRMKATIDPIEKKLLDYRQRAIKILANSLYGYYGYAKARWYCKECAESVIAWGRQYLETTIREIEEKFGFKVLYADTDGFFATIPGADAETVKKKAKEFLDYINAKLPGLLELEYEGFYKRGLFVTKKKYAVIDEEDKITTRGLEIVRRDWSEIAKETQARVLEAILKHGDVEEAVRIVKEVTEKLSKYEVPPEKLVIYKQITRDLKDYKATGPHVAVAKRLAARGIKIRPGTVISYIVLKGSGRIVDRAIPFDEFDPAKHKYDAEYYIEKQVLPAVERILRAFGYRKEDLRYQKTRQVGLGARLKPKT
The note with it: RT efficiency without KPCNA; Mg, dNTPs; about 45% with 1 uM KPCNA.

In data set [1], “T. kodakarensis proliferating cell nuclear antigen (KPCNA) (from UniProt Q5JF32 2-249)” came in with an RT efficiency of TgoRTxo at 3.5 uM KPCNA compared to no KPCNA of 3 fold; an efficiency of reverse transcription (fold increase, KPCNA raised from 0 to 1 uM) of 4 fold; a reverse transcriptase efficiency of TgoRTxo in the absence of KPCNA (baseline) of 10%; a reverse transcriptase efficiency of TgoRTxo with 1 uM KPCNA of 45%.

With ~600 nt RNA template with DNA primer, the activity in data set [2] was found to be 10%.
